Experimental findings from US20160084839A1 (Merck Sharp & Dohme, published 2016) are described below.

The target in the experiment is T1, human programmed death ligand 1 (PD-L1) (human, UniProt Q9NZQ7 19-290).
T1 construct: Endogenous PD-L1 on tumor, stromal and inflammatory cells in formalin-fixed, paraffin-embedded tumor tissue sections; 22C3 is described as an anti-human PD-L1 antibody; also called mature PD-L1; hPD-L1
The experiment in a line: IHC on FFPE NSCLC tissue section.

T1 sequence (Q9NZQ7 19-290): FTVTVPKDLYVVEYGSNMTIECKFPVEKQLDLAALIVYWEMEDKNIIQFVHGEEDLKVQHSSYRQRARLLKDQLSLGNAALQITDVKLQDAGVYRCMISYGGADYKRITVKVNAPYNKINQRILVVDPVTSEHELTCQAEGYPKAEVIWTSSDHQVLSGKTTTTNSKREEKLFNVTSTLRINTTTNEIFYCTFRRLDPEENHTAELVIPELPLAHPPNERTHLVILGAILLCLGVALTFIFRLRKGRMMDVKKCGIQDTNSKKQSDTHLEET

B1: monoclonal antibody 22C3 (antibody, V domains shown)
VH: QVHLQQSGAELAKPGASVKMSCKASGYTFTSYWIHWIKQRPGQGLEWIGYINPSSGYHEYNQKFIDKATLTADRSSSTAYMHLTSLTSEDSAVYYCARSGWLIHGDYYFDFWGQGTTLTVSS
VL: DIVMSQSPSSLAVSAGEKVTMTCKSSQSLLHTSTRKNYLAWYQQKPGQSPKLLIYWASTRESGVPDRFTGSGSGTDFTLTISSVQAEDLAVYYCKQSYDVVTFGAGTKLELK
notes: Whole hybridoma antibody used as primary antibody in IHC; also called MEB037.22C3; PD-L1 22C3 antibody
As for B1, the binding result was “binds”.
